{"source": "paper PMC10926671", "biological_target": "H3K27me3 peptide", "experiment": "ITC"}
{"substance": "MBP-BP1 (maltose-binding protein-tagged bromo-adjacent homology-plant homeodomain domain containing protein 1) (natural protein)", "values": [{"measurement": "Kd", "result": 16.2, "unit": "µM"}]}
